Data published in patent publication US20110223107A1.
Numbering of substitutions follows the chain as printed.

B1: Fab of well E10 (Omniclonal AL0003Z1 plate) (Fab, V domains shown)
VH: EVQLQQSGPELVKPGASVKISCKASGDTFTDYYMNWVKQSHGKSLEWIGDINPNYGGITYNQKFKGKATLTVDTSSSTAYMELRGLTSEDSAVYYCQAYYRNSDYWGQGTTLTVSS
VL: DIVMTQAAPSVPVTPGESVSISCRSSKSLLHSNGNTYLYWFLQRPGQSPQLLIYRMSNLASGVPDRFSGSGSGTAFTLRISRVEAEDVGVYYCMQHLEYPYTFGGGTKLEIK
B2: 3D3 mouse anti-KAAG1 Fab (Fab, V domains shown)
VH: EVQLQQSVAELVRPGASVTLSCKASGYIFTDYEIHWVKQTPVHGLEWIGVIDPETGNTAFNQKFKGKATLTADISSSTAYMELSSLTSEDSAVYYCMGYSDYWGQGTTLTVSS
VL: DIVMTQSPSSLAVSIGQKVTMNCKSSQSLLNSNFQKNFLAWYQQKPGQSPKLLIYFASTRESSIPDRFIGSGSGTDFTLTISSVQAEDLADYFCQQHYSTPLTFGAGTKLELK
B3: G12 (Fab, V domains shown)
VH: B2 VH with L20V, V42A
VL: DIVMTQSPKFMSTSVGDRVSITCKASQDVGTAVAWYQQKPGQSPELLIYWTSTRHTGVPDRFSGSGSGTDFTLTISSVQAEDLADYFCQQHYSIPLTFGAGTKLELR
B4: A9 (Fab, V domains shown)
VH: QVQVQQPGAELVRPGASVTLSCKASGYIFTDYEVHWVRQRPVHGLEWIGVIDPETGDTAYNQKFKGKATLTADKSSSTAYMELSSLTAEDSAVYYCIGYADYWGQGTTLTVSS
VL: DIVMTQSPSSLAMSLGQKVTMSCKSSQSLLNSNNQLNYLAWYQQKPGQSPKLLVYFASTRKSGVPDRFIGSGSGTDFTLTITSVQAEDLADYFCQQHFNTPLTFGAGTKLELK
B5: Fab of well C2 (Omniclonal AL0003Z1 plate) (Fab, V domains shown)
VH: DVQLQESGPDLVKPSQSLSLTCTVTGFSITSGYGWHWIRQFPGNKLEWMGYISFNGDSNYNPSLKSRISITRDTSKNQFFLQLNSVTSEDTATYYCASSYDGLFAYWGQGPLVTVSA
VL: DIQMTQSPSSMYASLGERVTLTCKASQDIHNYLNWFQQKPGKSPKTLIHRANRLVAGVPSRFSGSGSGQDYSLTISSLEYEDLGIYYCLQYDAFPLTFGAGTKLELK
B6: 3C4 mouse anti-KAAG1 Fab (Fab, V domains shown)
VH: B5 VH with D1E, S53N, F54Y, N55D, D57H, S58N, N59D, R72Q, S88T, P111T
VL: DIVMSQSPSSMYASLGERVTITCKASQDIHNFLNWFQQKPGKSPKTLIFRANRLVDGVPSRFSGSGSGQDYSLTISSLEFEDLGIYSCLQYDEIPLTFGAGTKLELR
B7: Fab of well D1 (Omniclonal AL0003Z1 plate) (Fab, V domains shown)
VH: B5 VH with D1E, N44D, S58Y, N84S, S88T, P111T
VL: B5 VL with Q3K, L21I, N31T, K45E, H49Y, A56D, L83M, A93E

target: T1, Fc-fused truncated mutant of KAAG1 spanning amino acids 1-35 (human); assay: ELISA
T1 sequence: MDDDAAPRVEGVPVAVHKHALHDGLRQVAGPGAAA

Question: How did the OD450 turn out when B1 was run?
Answer: 0.33

target: Fc-0447 1-60 (human) (UniProt Q9UBP8); assay: ELISA

Question: Which OD450 does the source give for B2 here?
Answer: 1.33

Question: With B3 as the binder, how does the OD450 read?
Answer: 1.52

Question: How did the OD450 turn out when B4 was run?
Answer: 2.29

Question: With B5 as the binder, how does the OD450 read?
Answer: 0.48

Question: For B6, which OD450 is on record?
Answer: 0.57

Question: How did the OD450 turn out when B7 was run?
Answer: 0.27
